Source: article PMC10716051, “Cryo-EM reveals how Hsp90 and FKBP immunophilins co-regulate the glucocorticoid receptor” (Nature Structural & Molecular Biology, 2023)

T1: human FKBP51 (human, UniProt Q13451 1-457)
T1 construct: FKBP51, human; The His6 tag is cleavable; source: bacterial expression plasmid pET151, purified
T1 sequence: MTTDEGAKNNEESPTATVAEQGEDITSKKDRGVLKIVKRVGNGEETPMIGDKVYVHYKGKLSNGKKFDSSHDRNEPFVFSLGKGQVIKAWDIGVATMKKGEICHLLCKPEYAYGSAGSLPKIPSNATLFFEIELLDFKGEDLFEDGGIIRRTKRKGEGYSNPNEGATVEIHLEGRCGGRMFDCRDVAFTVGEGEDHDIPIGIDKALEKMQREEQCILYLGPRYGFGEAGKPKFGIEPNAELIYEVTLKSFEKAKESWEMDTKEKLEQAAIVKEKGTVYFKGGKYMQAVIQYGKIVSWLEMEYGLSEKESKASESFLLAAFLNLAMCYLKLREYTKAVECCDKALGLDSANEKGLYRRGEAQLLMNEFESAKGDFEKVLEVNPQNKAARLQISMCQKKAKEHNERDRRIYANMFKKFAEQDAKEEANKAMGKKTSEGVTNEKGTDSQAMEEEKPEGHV

B1: human FKBP52 (natural protein)
chain: MTAEEMKATESGAQSAPLPMEGVDISPKQDEGVLKVIKREGTGTEMPMIGDRVFVHYTGWLLDGTKFDSSLDRKDKFSFDLGKGEVIKAWDIAIATMKVGEVCHITCKPEYAYGSAGSPPKIPPNATLVFEVELFEFKGEDLTEEEDGGIIRRIQTRGEGYAKPNEGAIVEVALEGYYKDKLFDQRELRFEIGEGENLDLPYGLERAIQRMEKGEHSIVYLKPSYAFGSVGKEKFQIPPNAELKYELHLKSFEKAKESWEMNSEEKLEQSTIVKERGTVYFKEGKYKQALLQYKKIVSWLEYESSFSNEEAQKAQALRLASHLNLAMCHLKLQAFSAAIESCNKALELDSNNEKGLFRRGEAHLAVNDFELARADFQKVLQLYPNNKAAKTQLAVCQQRIRRQLAREKKLYANMFERLAEEENKAKAEASSGDHPTDTEMKEEQKSNTAGSQSQVETEA
notes: FKBP52 (gene FKBP4), human; The His6 tag is cleavable; source: bacterial expression plasmid pET151, purified

Tests used:
Conditions in all cases: both partners purified
human Hsp90α = biological target: T2, human Hsp90α (human, UniProt P07900 1-732); assay: cryo-EM structure; GR chaperone cycle reconstituted in vitro from purified components (GR DBD-LBD, Hsp70, Hsp40, Hop, Hsp90, p23, Bag-1) with FKBP52; 20 mM sodium molybdate; pulldown on MBP-GR DBD-LBD, size exclusion, 0.02% glutaraldehyde crosslinking; datasets I and II
T2 construct: Hsp90α, human; also called Hsp90A; Hsp90B (the two protomers of the dimer)

human FKBP52 = biological target: B1; assay: as above
human FKBP51 = biological target: T1, human FKBP51; assay: cryo-EM structure; GR chaperone cycle reconstituted in vitro from purified components (GR DBD-LBD, Hsp70, Hsp40, Hop, Hsp90, p23, Bag-1) with FKBP51; 20 mM sodium molybdate; pulldown on MBP-GR DBD-LBD, size exclusion, 0.02% glutaraldehyde crosslinking; datasets III and IV

Binder | binding result (human Hsp90α) | binding result (human FKBP52) | binding result (human FKBP51)
human GR DBD-LBD (residues 418-777, F602S) (domain or fragment, UniProt P04150 418-777, looked up, glucocorticoid receptor, human; codon optimized; The His6-MBP tag is cleavable; the complex was pulled down on MBP-GR DBD-LBD; Only the LBD was visible in the maps; also called glucocorticoid receptor; MBP-GR DBD-LBD; source: E. coli BL21 star (DE3), purified (Ni-NTA, size exclusion); not shown: MBP, N-terminal, kept) PKLCLVCSDEASGCHYGVLTCGSCKVFFKRAVEGQHNYLCAGRNDCIIDKIRRKNCPACRYRKCLQAGMNLEARKTKKKIKGIQQATTGVSQETSENPGNKTIVPATLPQLTPTLVSLLEVIEPEVLYAGYDSSVPDSTWRIMTTLNMLGGRQVIAAVKWAKAIPGFRNLHLDDQMTLLQYSWMSLMAFALGWRSYRQSSANLLCFAPDLIINEQRMTLPCMYDQCKHMLYVSSELHRLQVSYEEYLCMKTLLLLSSVPKDGLKSQELFDEIRMTYIKELGKAIVKREGNSSQNWQRFYQLTKLLDSMHEVVENLLNYCFQTFLDKTMSIEFPEMLAEIITNQIPKYSNGNIKKLLFHQK | binds | binds | binds
B1 | binds |  | 
